According to article PMC9052748, “The Di-Iron Protein YtfE Is a Nitric Oxide-Generating Nitrite Reductase Involved in the Management of Nitrosative Stress” (Journal of the American Chemical Society, 2022):

Legend:
YtfE = biological target: T1, YtfE (Escherichia coli, UniProt P69506); test: initial rates of DTT-mediated reduction of air-exposed YtfE (A340 nm), binding isotherm; type: biochemical; settings: air-exposed (oxidized) YtfE ~90 μM; DTT 0 to 80 mM; reductant; apparent value from rates
T1 construct: C-terminal His tag (pGS2618, pET24a derivative), expressed in E. coli BL21 (DE3)-T1R, purified anaerobically; di-iron holo form, 26,154 Da, monomer
Source text: initial rates of DTT-mediated reduction of air-exposed YtfE (A340 nm), binding isotherm on YtfE | fitted using a simple binding isotherm, from which a Kd was obtained

purified protein = substrate: O=NO; test: purified protein; type: biochemical, Escherichia coli; settings: di-ferrous YtfE 10 μM, reductant dithionite-reduced methyl viologen 58 μM, pH 7.5, 100 mM Tris, anaerobic

Kd (YtfE) [mM] | Molecule | Km (purified protein) | Vmax (purified protein) [µmol/min/mg] | kcat (purified protein) [s⁻¹] | kcat/Km (purified protein) [M⁻¹ s⁻¹]
7.3 | OC(CS)C(O)CS (stereo not drawn) [DTT] |  |  |  | 
 | YtfE (Escherichia coli K-12) (protein, C-terminal His tag (pGS2618, pET24a derivative), expressed in E. coli BL21 (DE3)-T1R, purified anaerobically; di-iron holo form, 26,154 Da, monomer) MAYRDQPLGELALSIPRASALFRKYDMDYCCGGKQTLARAAARKELDVEVIEAELAKLAEQPIEKDWRSAPLAEIIDHIIVRYHDRHREQLPELILQATKVERVHADKPSVPKGLTKYLTMLHEELSSHMMKEEQILFPMIKQGMGSQAMGPISVMESEHDEAGELLEVIKHTTNNVTPPPEACTTWKAMYNGINELIDDLMDHISLENNVLFPRALAGE | 252 (± 32) μM | 1.33 | 0.58 ± 0.0265 | 2300 ± 105
 | YtfE (Escherichia coli K-12; C30A/C31A) (protein, C-terminal His tag (pGS2618, pET24a derivative), expressed in E. coli BL21 (DE3)-T1R, purified anaerobically; di-iron holo form, 26,154 Da, monomer) MAYRDQPLGELALSIPRASALFRKYDMDYAAGGKQTLARAAARKELDVEVIEAELAKLAEQPIEKDWRSAPLAEIIDHIIVRYHDRHREQLPELILQATKVERVHADKPSVPKGLTKYLTMLHEELSSHMMKEEQILFPMIKQGMGSQAMGPISVMESEHDEAGELLEVIKHTTNNVTPPPEACTTWKAMYNGINELIDDLMDHISLENNVLFPRALAGE | 288 (± 29) μM | 1.59 | 0.693 ± 0.0263 | 2410 ± 91.7
